Usually EC50 stands for the concentration giving half of the maximal effect. Low readings indicate a more potent agent, high ones a less potent agent. In general, IC50 refers to the concentration that gives 50% inhibition. In general, Kd refers to the equilibrium constant for the complex coming apart.

The record followed here is patent US20240301069A1 (GUANGDONG FAPON BIOPHARMA, published 2024).

Experiment [1] concerns the target T1, human PD-L2 protein (Acrobiosystem), hPD-L2 hFc (human, UniProt Q9BQ51 20-219, limits assumed).
T1 construct: Bought; also called B7-DC; not shown: human Fc
T1 sequence (looked up): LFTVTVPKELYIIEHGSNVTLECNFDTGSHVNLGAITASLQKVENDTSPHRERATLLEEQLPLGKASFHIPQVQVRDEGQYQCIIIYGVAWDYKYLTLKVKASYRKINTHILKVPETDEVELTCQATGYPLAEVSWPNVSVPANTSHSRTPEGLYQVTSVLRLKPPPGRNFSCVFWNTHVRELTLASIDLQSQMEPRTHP
The experiment in a line: ELISA on coated hPD-L2 hFc. How it is done:
(§1) Supernatant was discarded; a blocking solution (1×PBS+1% BSA) was added in 200 μL/well; and blocking was performed for 1 h at 37° C. […] Washing was performed for 3 times with the 1×PBS. HRP-labeled goat anti-mouse IgG (sigma A0168-1ML) was added in 100 μL/well; incubation was performed for 30 min at 37° C. in a standing manner; and after washing was performed for 3 times with the 1×PBS, a color reaction was performed.

In experiment [2] the target is macaque PD-L1 on CHO-cynoPD-L1 stable cells (macaque, UniProt Q9NZQ7 19-290 (human entry)). The experiment in a line: flow cytometry, antibody titration on CHO-cynoPD-L1 cells, MFI-APC.
Sequence of macaque PD-L1 on CHO-cynoPD-L1 stable cells (Q9NZQ7 other isoform, or with tags, fused parts or gaps limits assumed): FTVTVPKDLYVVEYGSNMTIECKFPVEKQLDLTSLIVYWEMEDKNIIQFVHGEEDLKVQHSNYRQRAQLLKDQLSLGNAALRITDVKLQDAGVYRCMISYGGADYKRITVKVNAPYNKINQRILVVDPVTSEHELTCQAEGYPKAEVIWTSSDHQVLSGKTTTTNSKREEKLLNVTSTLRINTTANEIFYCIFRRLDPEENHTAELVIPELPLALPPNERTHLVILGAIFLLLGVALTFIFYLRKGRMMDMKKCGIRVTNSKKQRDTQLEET
Experiment [3] concerns the target T2, human PD-L1 full-length protein on CHO-hPD-L1 stable cells (human, UniProt Q9NZQ7 19-290).
T2 construct: also called membrane protein PD-L1
The experiment in a line: flow cytometry blocking assay (method 1): antibody titrated on CHO-hPD-L1 cells; blocked ligand recombinant human PD-1-hFc. How it is done: […] The 1×FCM buffer was used to resuspend the CHO-hPD-L1 cells to the cell density of 2×10E6/mL, and the cells were evenly spread in the 96-well V base plate in 100 μL/well. […] After 250×g was taken to perform centrifugation for 5 min, supernatant was discarded in a sucking manner. After washing was performed for 2 times with the 1×FCM buffer, the cells were resuspended by adding the 1×PBS in 100 μL/well; and the flow cytometer (Beckman, CytoFLEX) was used for detection.
(In general: In flow cytometry, cells or beads pass a laser one at a time.)

Experiment [4] concerns the target T3, human PD-L1 extracellular domain recombinant protein hPD-L1-his (human, UniProt Q9NZQ7 19-238).
T3 construct: extracellular domain; Home-made; also called human PD-L1 recombinant protein; not shown: his label
Description: BLI (ForteBIO QKe), hPD-L1-his captured on an anti-Penta-HIS sensor, antibody in solution. How it is done:
An experimental method included the following.
An equilibration buffer (1×PBS+0.02% Tween20) was used to dilute a home-made human PD-L1 extracellular domain recombinant protein hPD-L1-his carrying a his label, until a final concentration reached 5 μg/mL. […] The whole reaction was undergone at 25° C. and 1000 rpm.
For orientation: Biolayer interferometry detects binding as a change in optical thickness at a sensor tip.

The target in experiment [5] is T4, human CD86 protein (Acrobiosystem), hCD86 hFc (human, UniProt P42081 26-247, limits assumed).
T4 construct: Bought; also called B7-2; not shown: human Fc
T4 sequence (looked up): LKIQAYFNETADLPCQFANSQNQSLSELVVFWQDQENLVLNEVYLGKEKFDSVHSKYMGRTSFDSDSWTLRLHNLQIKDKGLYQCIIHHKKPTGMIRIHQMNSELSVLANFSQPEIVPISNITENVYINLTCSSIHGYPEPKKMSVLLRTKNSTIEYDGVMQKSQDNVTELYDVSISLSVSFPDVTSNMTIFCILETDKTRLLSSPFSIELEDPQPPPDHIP
Description: ELISA on coated hCD86 hFc. The procedure: as §1

Experiment [6] has as its target T5, human ICOSLG protein (Acrobiosystem), hICOSLGhFc (human, UniProt O75144 19-258, limits assumed).
T5 construct: Bought; also called B7-H2; not shown: human Fc
T5 sequence (looked up): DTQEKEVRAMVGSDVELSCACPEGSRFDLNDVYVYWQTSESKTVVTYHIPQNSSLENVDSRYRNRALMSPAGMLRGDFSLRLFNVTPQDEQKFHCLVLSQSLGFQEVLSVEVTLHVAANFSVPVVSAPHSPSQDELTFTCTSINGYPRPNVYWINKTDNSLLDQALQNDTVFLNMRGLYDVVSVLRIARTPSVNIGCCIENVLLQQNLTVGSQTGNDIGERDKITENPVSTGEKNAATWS
The experiment in a line: ELISA on coated hICOSLG hFc. How it is done:
as §1

Experiment [7] addresses T6, human B7-H3 protein (Acrobiosystem), hB7-H3 hFc (human, UniProt Q5ZPR3-2 29-245, limits assumed).
T6 construct: Bought; not shown: human Fc
T6 sequence (looked up): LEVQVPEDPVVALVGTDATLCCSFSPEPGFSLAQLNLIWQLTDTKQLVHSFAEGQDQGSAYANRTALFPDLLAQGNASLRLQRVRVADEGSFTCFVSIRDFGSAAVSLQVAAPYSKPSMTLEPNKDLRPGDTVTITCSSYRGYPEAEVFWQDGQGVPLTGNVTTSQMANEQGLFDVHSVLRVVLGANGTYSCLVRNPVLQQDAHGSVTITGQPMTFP
Description: ELISA on coated hB7-H3 hFc. How it is done: as §1

The target of experiment [8] is T7, human PD-L1 on IFNγ-stimulated A375 cells (human, UniProt Q9NZQ7 19-290).
T7 construct: whole, on cells; PD-L1 of the A375 cells themselves; also called PD-L1 membrane protein
T7 sequence (Q9NZQ7 19-290): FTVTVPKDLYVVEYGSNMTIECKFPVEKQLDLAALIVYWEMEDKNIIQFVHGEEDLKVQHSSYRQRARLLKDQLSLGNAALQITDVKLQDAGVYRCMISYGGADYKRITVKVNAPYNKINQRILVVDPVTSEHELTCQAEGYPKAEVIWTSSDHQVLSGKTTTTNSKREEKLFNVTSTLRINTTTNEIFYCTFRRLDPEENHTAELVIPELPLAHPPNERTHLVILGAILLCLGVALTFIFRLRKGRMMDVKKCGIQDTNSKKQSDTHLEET
Description: flow cytometry, antibody titration on human IFNγ-stimulated A375 cells, MFI-APC. How it is done: An experimental process included the following.
50 ng/mL of the human IFNγ (R&D) was used to stimulate the expression of human PD-L1 on human melanoma cells A375 (Shanghai cell bank) overnight; on the next day, 0.25% pancreatin (Gibco) was used to digest the A375 cells; after washing was performed once with DPBS, live cell density was adjusted to 2E6/mL; and the mixture was added into the 96-well V base plate in 100 μL/well. […] The mixture was added into the cells in 100 μL/well; and incubation was performed on ice for 30 min in a standing manner, then 250×g was taken to perform centrifugation for 5 min, and supernatant was discarded in a sucking manner. After washing was performed for 2 times with the 1×FCM buffer, iFluor™633GAM fluorescent secondary antibodies (ATT bioquest) diluted by the 1×FCM buffer (dilution ratio being 1:400) were added in 100 μL/well; and incubation was performed on ice for 30 min. After 250×g was taken to perform centrifugation for 5 min, supernatant was discarded in a sucking manner. After washing was performed for 2 times with the 1×FCM buffer, the cells were resuspended by adding the 1×PBS in 100 μL/well; and the flow cytometer (Beckman, CytoFLEX) was used for detection.

Experiment [9] addresses T8, human CTLA-4 protein (Acrobiosystem), hCTLA-4 hFc (human, UniProt P16410 37-162, limits assumed).
T8 construct: Bought; not shown: human Fc
Description: ELISA on coated hCTLA-4 hFc. How it is done: as §1
In general terms: ELISA stands for enzyme-linked immunosorbent assay.

In experiment [10] the target is T9, recombinant human PD-L1 protein carrying a hFc label (human, UniProt Q9NZQ7 19-238).
T9 construct: Self-produced; also called hPD-L1 hFc; PD-L1-hFc; not shown: human Fc label
T9 sequence (Q9NZQ7 19-238): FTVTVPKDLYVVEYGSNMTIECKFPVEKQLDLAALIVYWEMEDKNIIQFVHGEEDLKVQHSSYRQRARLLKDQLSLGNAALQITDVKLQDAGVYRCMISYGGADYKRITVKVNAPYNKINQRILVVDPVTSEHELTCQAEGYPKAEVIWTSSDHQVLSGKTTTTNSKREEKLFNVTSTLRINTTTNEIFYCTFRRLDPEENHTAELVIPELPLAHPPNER
Description: flow cytometry blocking assay (method 2): antibody titrated; binding of recombinant human PD-L1-hFc to PD-1 on CHO-hPD-1 cells is blocked. The procedure: The 1×FCM buffer was used to dilute the self-produced recombinant human PD-L1 protein carrying hFc, until the concentration reached 2 μg/mL. The 1×FCM buffer was used to resuspend the CHO-hPD-1 cells to the cell density of 2×10E6/mL, and the cells were evenly spread in the 96-well V base plate in 100 μL/well. […] After 250×g was taken to perform centrifugation for 5 min, supernatant was discarded in a sucking manner; after washing was performed once with the 1×FCM buffer, APC-labeled goat anti-mouse Fc fluorescent secondary antibodies (Biolegend) diluted by the 1×FCM buffer (dilution ratio being 1:500) were added in 100 μL/well; and incubation was performed on ice for 30 min. After 250×g was taken to perform centrifugation for 5 min, supernatant was discarded in a sucking manner. After washing was performed for 2 times with the 1×FCM buffer, the cells were resuspended by adding the 1×PBS in 100 μL/well; and the flow cytometer (Beckman, CytoFLEX) was used for detection.

Experiment [11] addresses T10, human CD28 protein (Acrobiosystem), hCD28 hFc (human, UniProt P10747 19-152).
T10 construct: Bought; not shown: human Fc
Description: ELISA on coated hCD28 hFc. How it is done: as §1

For experiment [12], the target named is T2, human PD-L1 full-length protein on …. Description: flow cytometry, antibody titration on CHO-hPD-L1 cells, MFI-APC.
Experiment [13] concerns the target T5, human ICOSLG protein (Acrobiosystem), …. Description: ELISA on coated hFc fusion protein. How it is done: as §1
Experiment [14] has as its target T1, human PD-L2 protein (Acrobiosystem), …. Description: ELISA on coated hFc fusion protein. How it is done: as §1
The target of experiment [15] is T2, human PD-L1 full-length protein on …. Description: flow cytometry blocking assay: antibody titrated on CHO-hPD-L1 cells; blocked ligand recombinant human CD80-hFc.

T3 sequence (Q9NZQ7 19-238): as above
T8 sequence (P16410 37-162 limits assumed): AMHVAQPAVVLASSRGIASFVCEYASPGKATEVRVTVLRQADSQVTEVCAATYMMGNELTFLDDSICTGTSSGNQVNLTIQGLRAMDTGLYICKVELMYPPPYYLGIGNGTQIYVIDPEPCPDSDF
T2 sequence (Q9NZQ7 19-290 limits assumed): as the sequence (Q9NZQ7 19-290) above

B1: F016-568 (antibody, V domains shown)
VH: QLQESGPSLVKPSQTLSLTCSVTGDSITSDYWNWIRKFPGNKLEYMGYISYTGSTYYNPSLKSRISITRDTSKNQYYLQLNSVTTEDTATYYCAKQGGWLNAMDYWGQGTSVTVSS
VL: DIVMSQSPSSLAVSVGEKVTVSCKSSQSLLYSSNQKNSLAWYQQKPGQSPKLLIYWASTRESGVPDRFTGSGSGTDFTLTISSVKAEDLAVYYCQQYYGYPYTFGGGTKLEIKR
notes: Mouse hybridoma monoclonal antibody; also called anti-human PD-L1 antibody F016-568
Take B1: the binding result in experiment [1], in experiment [5], in experiment [6], in [7], in [9] and in experiment [11] was “no binding (tested: 10 µg/mL)” throughout. For the same molecule, the EC50 was determined as 1.29 nM in [2], 0.175 nM in experiment [8] and 1.25 nM in experiment [12]. For the same molecule, the values for the IC50 in experiment [3] and in [10] were 6.9 nM and 1.69 nM, respectively. Further, in [4], the Kd was 0.101 nM.

B2: F016-193 (antibody, V domains shown)
VH: EVQLQQSGPELVKPGASVKMSCKASGYTFTSYVMHWVKQKPGQGLEWIGYINPHNDGNKYNEKFKGKATLTSDKSSSSAYMELSSLTSEDSAVYYCAKQTMDYWGQGTSVTVSS
VL: DIVLTQSPASLAVSLGQRATLSCRASESVEFYGTTLMQWFQQKPGQPPKLLIYAASNVESGVPARFSGSGSGTDFSLNIHPVEEDDIAMYFCQQSRKVPYTFGGGTKLEIKR
notes: Mouse hybridoma monoclonal antibody; also called anti-human PD-L1 antibody F016-193
For the molecule B2, the IC50 in [3] is 4.98 nM; in experiment [15], 4.47 nM; in experiment [10], 0.993 nM. For the same molecule, the binding result in [13], in [14], in experiment [5], in experiment [7], in experiment [9] and in [11] was “no binding (tested: 10 µg/mL)” each time. For the same molecule, the Kd in experiment [4] stood at 0.0098 nM. Also, the EC50 in experiment [8] worked out at 0.128 nM; in [12], 0.561 nM.

B3: F016-870 (antibody, V domains shown)
VH: EVQLQESGPSLVKPSQTLSLTCSVTGDSITSGYWNWIRKFPGNKLEYMGYISYTGSTYQNPSLKSRISFTRDTSKNQYYLQLSSVTTEDTATYYCARSRAWIRTYFDYWGQGTTLTVSS
VL: EIVLTQSPALMAASPGEKVTITCSVSSSISSSNLHWYQQKSETSPKPWIYGTSNLASGVPVRFSGSGSGTSYSLTISSMEAEDAATYYCQQWSSYPLTFGAGTKLELKR
notes: Mouse hybridoma monoclonal antibody; also called anti-human PD-L1 antibody F016-870
Regarding B3, the binding result in experiment [1], in experiment [5], in [6], in experiment [7], in experiment [9] and in experiment [11] was “no binding (tested: 10 µg/mL)” each time. Moreover, the EC50 in experiment [2] was determined as 0.949 nM; in experiment [12], 1.1 nM. Besides, the IC50 was 5.22 nM in [3], 4.91 nM in [15] and 1.61 nM in [10]. Also, in [4], the dissociation constant (Kd) came to 0.0742 nM.
